Assay results reported in patent KR20180079232A (dated 2018).

Target: T1, L1CAM (L1 cell adhesion molecule, CD171), human (human, UniProt P32004 20-1257)
T1 construct: whole, on cells; The target sat on L1CAM-expressing cells (SCK-L1, Choi-CK, TFK-1); For the western blots it was the membrane protein fraction of those cells after SDS-PAGE; also called 막 L1CAM; membrane L1CAM
Assay: confocal microscopy of L1CAM-expressing cells treated with Ab417 (10 ㎍/mL); surface-bound antibody detected with anti-human IgG

T1 sequence (P32004 20-1257): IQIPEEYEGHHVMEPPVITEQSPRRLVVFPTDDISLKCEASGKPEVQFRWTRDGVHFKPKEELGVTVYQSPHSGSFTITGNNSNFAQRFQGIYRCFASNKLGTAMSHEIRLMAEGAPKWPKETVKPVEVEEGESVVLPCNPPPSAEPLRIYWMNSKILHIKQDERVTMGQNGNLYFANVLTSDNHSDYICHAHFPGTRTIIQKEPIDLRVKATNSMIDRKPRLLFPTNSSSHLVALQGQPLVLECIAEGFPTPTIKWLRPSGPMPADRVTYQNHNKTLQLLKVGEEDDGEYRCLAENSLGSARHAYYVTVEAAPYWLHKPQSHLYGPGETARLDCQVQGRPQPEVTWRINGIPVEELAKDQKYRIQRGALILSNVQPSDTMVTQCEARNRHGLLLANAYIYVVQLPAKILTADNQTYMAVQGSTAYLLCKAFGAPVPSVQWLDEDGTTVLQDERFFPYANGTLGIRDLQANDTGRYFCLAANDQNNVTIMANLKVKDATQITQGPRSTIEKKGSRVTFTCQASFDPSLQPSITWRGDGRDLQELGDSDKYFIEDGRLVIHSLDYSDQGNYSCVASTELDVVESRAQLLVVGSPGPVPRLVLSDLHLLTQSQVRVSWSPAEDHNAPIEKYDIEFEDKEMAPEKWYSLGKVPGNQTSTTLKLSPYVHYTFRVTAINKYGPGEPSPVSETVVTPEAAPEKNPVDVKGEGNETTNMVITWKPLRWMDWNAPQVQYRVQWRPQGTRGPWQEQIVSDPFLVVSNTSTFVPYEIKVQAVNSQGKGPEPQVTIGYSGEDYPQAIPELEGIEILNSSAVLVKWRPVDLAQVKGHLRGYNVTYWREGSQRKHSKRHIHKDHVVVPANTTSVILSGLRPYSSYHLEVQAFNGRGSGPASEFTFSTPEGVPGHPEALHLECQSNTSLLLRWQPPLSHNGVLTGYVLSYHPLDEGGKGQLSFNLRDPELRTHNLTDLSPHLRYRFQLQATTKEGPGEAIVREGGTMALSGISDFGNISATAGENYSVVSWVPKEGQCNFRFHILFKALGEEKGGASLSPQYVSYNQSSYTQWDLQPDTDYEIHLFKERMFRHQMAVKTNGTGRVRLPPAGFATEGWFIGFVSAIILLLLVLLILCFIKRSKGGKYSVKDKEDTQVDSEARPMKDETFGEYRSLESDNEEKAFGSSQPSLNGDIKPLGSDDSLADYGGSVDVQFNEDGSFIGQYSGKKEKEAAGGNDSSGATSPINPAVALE

B1: Ab417 항체 (anti-L1CAM antibody Ab417) (antibody, V domains shown)
VH: EVQLVESGGGVVQPGRSLRLSCAASGFTFSRFGMHWVRQAPGKGLEWVAFISNDGSNKYYADSVKGRFTISRDNSKNTLYLQMNSLRPEDTAVYYCARGRAYGSGSLFDPWGQGTLVTVSS
VL: DIQLTQSPSSLSASVGDRVTITCRASRTISIYVNWYRQRPGKAPESLIYAASNLHSGVPSRFSGSGSGTDFTLTISSLQPEDFATYYCQQSIGRGVVTFGQGTKLEIK
notes: It is a whole antibody made in CHO-DG44 cell line #9-20 and purified on protein A. It was detected with anti-human IgG (H+L) and anti-human IgG (Fc-specific)
binding result: binds
